This data set in a line: yeast display, Sf9 membrane polyspecificity reagent, FACS + sequencing; frameworks hold sequencing errors. In outline:
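Using colony PCR, genes from sorted yeast display clones were amplified, then sequenced on MiSeq at 2 × 250 and filtered by CDR length. The clones had been stained with 10% biotinylated, detergent-solubilized Sf9 membrane reagent for 1 hour at 4 °C and sorted by FACS into low and high (top ~1%) gates on anti-HA and streptavidin fluorescence. Polyreactivity labels come from the gate of origin.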
Turning to “QVQLVDSGRGLVQAGGSLRLSCAASGSIFDNYAMGSYRQAPGNERELVAAISGRGGSTYYADSVKGRFTISRDNAKNTVYLQMNSLKPEDTAVSYCNALVHQTYYDYDDWGHGTQVTVSS”, the “polyreactivity (PSR sort gate)” value was “high polyreactivity”.

For the sequence “QVQLVDSGVGLVQAGGSHRLSCAASAFTIDGYDMGWYRQAPGKERELVAAISWDGGSTYYADSVKGRFTISRDNAKNTVYLQMNSLKPEDTAVYYCAAPFPFVSEFYRYDYWGQGTQVTVST”, the “polyreactivity (PSR sort gate)” value is “low polyreactivity”.

Turning to “QVQLVDSGVGLVQAGGSLRLSCASSGSTFTINAMACYRHAPGKERELVAAISSGDSYYADSVKGRFTISRDNAKNTVYLQMNSLKPEDTTAVYYCAADSPGDSSKYDYWGQGTQVTVSS”, the “polyreactivity (PSR sort gate)” value was “low polyreactivity”.

As for “QVQLVDSRGCLVQAGGSLRLSFAASGSIFGYYSMVWYIQAPGKESELVAAISYSGSRTYYADSVKGRFTISRDNAKNTVYLQKNSLKPEDTAVYYCAVLRRDGFEYWGQGTQVTVSS”, the “polyreactivity (PSR sort gate)” value is recorded as “high polyreactivity”.

Take “QVQLVDSRGGLLQAGGSLRLSCAASGSIISRNAKGWYRQAPGKESELVAAITRSGGSTYYADSVKGRFTISRENAKNTVYLQRNRLKPEDTAVYYCATPIFSARRYTGYVKYDYWAQGTQVTVSS”: the “polyreactivity (PSR sort gate)” value is “high polyreactivity”.

For the sequence “QVQLVDSRGGLVQAGGSLRLICAASGSTFGRYARGWYRPEPGTERELVAAISWRGGSTFYADSVKGRFTISRDNAKNTVYLLMISLKPEDTAVYYCAAVSYGRPRMGYWGQGTQVTVSS”, the “polyreactivity (PSR sort gate)” value is recorded as “high polyreactivity”.

For the sequence “QVQLVDSRGGLVQAGGSLRLSCAASGFTFWYYAMGWYRQAPGKERELVAAITNGGGSKYYADSVKGRFTISRDNAKNTFYLQMNSLKPEDTAVFYCAKDGHSYYPWEYDYWGQGTQVTVSS”, the “polyreactivity (PSR sort gate)” value is “low polyreactivity”.

As for “QVQLVDSVGGLVQAGGSLRLSCAASGFTFYYNAMGLYRQAPGKERELVAAITSSGGSTYYADSVKGRFTISRDNAKNTVYLQMNSLKPEDTAVYYCAAVVYYRGYTYNYWGQGTQVTVSS”, the “polyreactivity (PSR sort gate)” value is “high polyreactivity”.

On to “QVQLVDSVGGLVQAGGSLRLSCAASGSIFGVYAKGWYRQAPGKERELVAAIDESGGSTFYADSVKGRFTISRDNAKNTVYLQMNSLKPEDTAVYYCLVFREDSGPGDYYYWGQGTQVTVSS”, for which the “polyreactivity (PSR sort gate)” value was “low polyreactivity”.

In the case of “QVQLVDSVGGLVQAGGSLRLSCAASGSIFNPYDMGWSRQAPGKERELVAAIDWSGGSTYYADSVKGRFTISRDNAKNTVYLQMNSLKPEDTAVYYCNARPDYSISLPGYPTLSEDDEYWGQGTQVTVSS”, the “polyreactivity (PSR sort gate)” value was “low polyreactivity”.

In the case of “QVQLVDSVGGLVQAGGSLRLSCAASGSIFWTYAMGWYRQAPGKERELVATITYSDGNTYYADSVKGRFTISRDNAKNTVYLQMHSLKPEDTAVYYCNADGIYASISGYRYDYWGQGTQVTVSS”, the “polyreactivity (PSR sort gate)” value is “low polyreactivity”.

Take “QVQLVDSVVGLVQAGGSLRLSFAASGYTYHYYAMGWYRQAPGKETELVAAISGSGSSTYYADSVKGRFTISRDNAKNTVYLQMNSLKPEDTAVYYCNARGHYPRARFGYKSGSDRYWGQGTQVTVSS”: the “polyreactivity (PSR sort gate)” value was “high polyreactivity”.

For “QVQLVDSWGGLVQAGGSLRLSCAASGFIFPYNTMGWYRQAPGKERELVAAISSGGSTYYADSVKGRFTISRDNAKNTVYLQMNSLKPEDTAVYYCAVRGRRSPYGYWGQGTQVTVSS”, the “polyreactivity (PSR sort gate)” value is given as “high polyreactivity”.

For “QVQLVDTGGGIVQAGGSLRLSCAASGRTFFWNAMGWYRLAPGKERELVAAITWYGGSTYYADSVKGRFTISRDNAKNTVYLQMNSLKPEDSAVYYCAAVVSDYVWRYEYWGQGTQVTVSS”, the “polyreactivity (PSR sort gate)” value is “low polyreactivity”.

“QVQLVDTGGGLVQAGGSLRFSCAASGSIFQVYAMGWYRQAPGKERELVASITSSGGSTYYADSVKGRFTISRDNAKNTVYLQMNSLKTEDTAVYYCADDQWSQDYDYWGQGTQVTVSS”: the “polyreactivity (PSR sort gate)” value is reported as “low polyreactivity”.

In the case of “QVQLVEAGGCLVQAGGSLRLSCAASGRIFRFYTMGWYRQAPGNERELVAAIRYSSVSTYYADSVKGRFTISRDNAKNTVYLQMNSLKPEDTAVYYCDAVHRSYVKTYNYWGLGTQVTVSS”, the “polyreactivity (PSR sort gate)” value is on record as “high polyreactivity”.

(Values after the nanobody polyreactivity screen of Harvey et al. (2022).)
